# B1: BACINT_01033-CE1 (carbohydrate esterase family 1, ferulic acid esterase) (enzyme, Bacteroides intestinalis DSM 17393)
# chain: QQQDFPAGTTPNEHNINGADYPRIGEDRRVHFRIHAPNAQKVEISFRGEMTKEADGYWSLVSKEPEVIGFHYYQVIIDGVSAADPNGKPFFGMGKWVSGIEIPEKGVDYYSIKNVPHGLISQSWYYSDIRKEWRRCIVYTPAEYDKNPTKKYPVLYLQHGMGENETSWANQGKMNFIMDNLIAEGKAKPMIVVMDNGNIEVFKTNSGETPEDARKRFGAEFPAILVNEIIPHIESNFRTLTDRDNRAMAGLSWGGLLTFNTTLNNLDKFAYIGGFSGAGSIDLKQLDTVYGGVFKNRKAFNDKVHVFFLGIGSEEHPERTKNLSDGLQAAGINTIYYESPGTAHEFLTWRRCLKEFAPLLFKTK
# modifications: seleno-methionine-labeled
# notes: BACINT_01033-CE1 of Bacteroides intestinalis DSM 17393; N-terminal Ig-like fold of ~100 residues followed by the esterase domain (residues 126-383); predicted signal peptide; Cloned NdeI/XhoI into pET-28a; also called Bi1033-CE1; Bi1033; source: E. coli BL21 (DE3), seleno-methionine-labeled, purified (HisTrap, Superdex 200)
# Target: the molecule itself
# Assay: crystal structure; seleno-methionine-labeled BACINT_01033-CE1, 20 mg/ml in 50 mM Tris pH 7.5, 150 mM NaCl; sitting drop, room temperature; P3_(1)21 form from 0.1 M BIS-Tris pH 6.5, 20% PEG 1,500; dimer in the asymmetric unit
protein,measurement,value
B1,stoichiometry N,2

# Reference: publication PMC7815789, “Degradation of complex arabinoxylans by human colonic Bacteroidetes” (Nature Communications, 2021)
